Measurements reported in patent US20260091068A1, “METHODS FOR TREATING AND PREVENTING DISEASES” (priority 2017, published 2026).

System: Bacteriophages of E. coli
Assay: Inactivation of bacteriophages by nucleases and proteases, titer by Gratia's method (Example 22)
Assay type: cell-based
Conditions: E. coli phage treated with 10 mcg/ml enzyme for 30 min
Experimental: As a control, when the original phage is added back, the titer increases.

B1: Proteinase K: Proteinase K (Promega) (protein, UniProt P06873 106-384, looked up)
Proteinase K: AAQTNAPWGLARISSTSPGTSTYYYDESAGQGSCVYVIDTGIEASHPEFEGRAQMVKTYYYSSRDGNGHGTHCAGTVGSRTYGVAKKTQLFGVKVLDDNGSGQYSTIIAGMDFVASDKNNRNCPKGVVASLSLGGGYSSSVNSAAARLQSSGVMVAVAAGNNNADARNYSPASEPSVCTVGASDRYDRRSSFSNYGSVLDIFGPGTSILSTWIGGSTRSISGTSMATPHVAGLAAYLMTLGKTTAASACRYIADTANKGDLSNIPFGTVNLLAYNNYQA
Phage titer (by Gratia's method): 6 × 10^4
